The source of these data is PMC8336959 (Science Advances, 2021).

As a reminder, the Kd is the equilibrium constant for the complex coming apart. A higher Kd goes with weaker binding.

B1: RPA70 N-terminal OB1 domain (RPA70N, residues 1 to 120), Atto488-labeled (domain or fragment)
chain: MVGQLSEGAIAAIMQKGDTNIKPILQVINIRPITTGNSPPRYRLLMSDGLNTLSSFMLATQLNPLVEEEQLSSNCVCQIHRFIVNTLKDGRRVVILMELEVLKSAEAVGVKIGNPVPYNE
modifications: Atto488 label
B2: Phosphorylated EGFR synthetic peptide (peptide)
peptide: FLPVPE[pY]INQSVPKR
B3: Tyrosine-phosphorylated MRE11 peptide (peptide)
peptide: PWVN[pY]QDGNLN
B4: Dual-phosphorylated H2AX (pH2AX) peptide (peptide)
peptide: PSGGKKATQA[pS]QE[pY]
B5: GRB2 OB1 peptide (peptide)
peptide: KYDFKATADDELSFKRG
B6: MRE11 peptide (peptide)
peptide: PWVNYQDGNLN

Square brackets hold non-standard residues; d marks the D form. Ends that are not written are not given here. pY = N[C@@H](Cc1ccc(OP(=O)(O)O)cc1)C(=O)O; pS = N[C@@H](COP(=O)(O)O)C(=O)O

Common to all, as to assay: MST
Assay [1] concerns the target GRB2, wild type, bacterially expressed and purified (UniProt P62993 1-217).
In assay [2] the target is Atto488-labeled GRB2-SH2 domain (UniProt P62993 60-152, Atto488 label).
Sequence of Atto488-labeled GRB2-SH2 domain (P62993 60-152): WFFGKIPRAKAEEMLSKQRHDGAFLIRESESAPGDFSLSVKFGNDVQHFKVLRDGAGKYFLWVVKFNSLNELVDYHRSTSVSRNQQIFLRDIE
Assay [3] addresses B1.

Sequence of GRB2, wild type, bacterially expressed and purified (P62993 whole entry, the tested form may be a part): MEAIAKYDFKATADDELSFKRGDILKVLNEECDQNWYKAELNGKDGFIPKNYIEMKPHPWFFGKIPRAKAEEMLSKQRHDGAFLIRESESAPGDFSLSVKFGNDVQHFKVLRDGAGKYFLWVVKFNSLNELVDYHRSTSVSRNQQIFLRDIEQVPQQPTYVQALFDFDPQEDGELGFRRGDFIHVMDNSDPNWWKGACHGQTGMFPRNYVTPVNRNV

As for B1, in assay [1], the binding result is recorded as “binds”.
With B2, the Kd in assay [2] came to 7.2 ± 2 µM.
B3: the binding result in assay [1] is given as “binds”.
On the same count and under the same terms, as for B4, the entry is “binds”.
Regarding B5, in assay [3], the binding result is given as “binds”.
For the molecule B6, the affinity in assay [2], expressed as Kd, was 33 ± 15 µM.
